Test results as given in article PMC10729150 (Journal for Immunotherapy of Cancer, 2023).

Tests used:
[1] = target: T1, Recombinant human CTLA-4-Fc (human, UniProt P16410); experiment: SPR
[2] = target: T1, Recombinant human CTLA-4-Fc; experiment: ELISA

T1 sequence (P16410 36-161): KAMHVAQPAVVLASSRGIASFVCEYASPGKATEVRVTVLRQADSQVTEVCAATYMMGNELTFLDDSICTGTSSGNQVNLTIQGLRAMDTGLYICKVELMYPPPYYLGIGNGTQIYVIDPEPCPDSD

Binder	Kd [1] [nM]	Kd [2] [nM]
XTX100 (antibody, V domains shown) VH: QVQLVQSGAEVKKPGSSVKVSCKASGYTFTNYFMNWVRQAPGQGLEWMGRVDPEQGRADYAEKFKKRVTITADKSTSTAYMELSSLRSEDTAVYYCARRAMDNYGFAYWGQGTLVTVSS VL: EIVLTQSPDFQSVTPKEKVTITCSANSALSYMYWYQQKPDQSPKLWVHGTSNLASGVPSRFSGSGSGTDFTLTINSLEAEDAATYYCHHWSNTQWTFGGGTKVEIK	0.091	0.16
XTX101+MMP (proteolytically activated XTX101) (antibody, V domains shown) VH: QVQLVQSGAEVKKPGSSVKVSCKASGYTFTNYFMNWVRQAPGQGLEWMGRVDPEQGRADYAEKFKKRVTITADKSTSTAYMELSSLRSEDTAVYYCARRAMDNYGFAYWGQGTLVTVSS VL: EIVLTQSPDFQSVTPKEKVTITCSANSALSYMYWYQQKPDQSPKLWVHGTSNLASGVPSRFSGSGSGTDFTLTINSLEAEDAATYYCHHWSNTQWTFGGGTKVEIK	0.127	0.24
